These results are taken from PMC3784395, “Ectopic Expression of WUS in Hypocotyl Promotes Cell Division via GRP23 in Arabidopsis”.

Series [1] addresses T1, GST-WUS (WUSCHEL) (UniProt Q9SB92 1-292).
T1 sequence: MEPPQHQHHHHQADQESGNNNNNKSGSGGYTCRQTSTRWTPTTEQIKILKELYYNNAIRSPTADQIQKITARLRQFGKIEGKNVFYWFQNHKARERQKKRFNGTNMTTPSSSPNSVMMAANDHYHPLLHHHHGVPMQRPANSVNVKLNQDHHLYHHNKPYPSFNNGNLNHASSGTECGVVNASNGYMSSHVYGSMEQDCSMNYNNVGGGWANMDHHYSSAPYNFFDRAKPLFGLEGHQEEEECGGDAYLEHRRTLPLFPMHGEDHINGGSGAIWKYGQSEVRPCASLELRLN
The series is described as follows: EMSA; Lightshift Chemiluminescent EMSA kit (Pierce), per manufacturer; buffer, salt, pH and temperature not stated. Particulars: protein: recombinant; chain copies: 2; label: 3' biotin on both strands (probe); blunt. Background: Mobility shift assays separate free from complexed probe on a gel.

In series [2] the target is T1, GST-WUS (WUSCHEL). The series is described as follows: competition; unlabeled mutant competitor up to 800x excess vs labeled N1; Lightshift Chemiluminescent EMSA kit (Pierce), per manufacturer; buffer, salt, pH and temperature not stated. Particulars: protein: recombinant; chain copies: 2; blunt.

B1: GRP23 promoter probe wt (-748 to -709) (dsDNA)
DNA 1: CATATATCTTTAATACTGTTAATGATCTTTCTTCAAAAAC
DNA 2: GTTTTTGAAGAAAGATCATTAACAGTATTAAAGATATATG
Consider B1, for which the binding result in series [1] is on record as “binds”.

B2: GRP23 promoter mutant (both TAAT to GGGG) (dsDNA)
DNA 1: CATATATCTTGGGGACTGTGGGGGATCTTTCTTCAAAAAC
DNA 2: GTTTTTGAAGAAAGATCCCCCACAGTCCCCAAGATATATG
Regarding B2, in series [2], the binding result is reported as “no binding”.
